In patent publication US6709838 (Genentech, dated 2004):

T1: human Ptch-2 (SEQ ID NO:2), overexpressed on transfected human 293 embryonic kidney cells (human, UniProt Q9Y6C5 1-1203)
T1 construct: also called Patched-2; patched-2
T1 sequence: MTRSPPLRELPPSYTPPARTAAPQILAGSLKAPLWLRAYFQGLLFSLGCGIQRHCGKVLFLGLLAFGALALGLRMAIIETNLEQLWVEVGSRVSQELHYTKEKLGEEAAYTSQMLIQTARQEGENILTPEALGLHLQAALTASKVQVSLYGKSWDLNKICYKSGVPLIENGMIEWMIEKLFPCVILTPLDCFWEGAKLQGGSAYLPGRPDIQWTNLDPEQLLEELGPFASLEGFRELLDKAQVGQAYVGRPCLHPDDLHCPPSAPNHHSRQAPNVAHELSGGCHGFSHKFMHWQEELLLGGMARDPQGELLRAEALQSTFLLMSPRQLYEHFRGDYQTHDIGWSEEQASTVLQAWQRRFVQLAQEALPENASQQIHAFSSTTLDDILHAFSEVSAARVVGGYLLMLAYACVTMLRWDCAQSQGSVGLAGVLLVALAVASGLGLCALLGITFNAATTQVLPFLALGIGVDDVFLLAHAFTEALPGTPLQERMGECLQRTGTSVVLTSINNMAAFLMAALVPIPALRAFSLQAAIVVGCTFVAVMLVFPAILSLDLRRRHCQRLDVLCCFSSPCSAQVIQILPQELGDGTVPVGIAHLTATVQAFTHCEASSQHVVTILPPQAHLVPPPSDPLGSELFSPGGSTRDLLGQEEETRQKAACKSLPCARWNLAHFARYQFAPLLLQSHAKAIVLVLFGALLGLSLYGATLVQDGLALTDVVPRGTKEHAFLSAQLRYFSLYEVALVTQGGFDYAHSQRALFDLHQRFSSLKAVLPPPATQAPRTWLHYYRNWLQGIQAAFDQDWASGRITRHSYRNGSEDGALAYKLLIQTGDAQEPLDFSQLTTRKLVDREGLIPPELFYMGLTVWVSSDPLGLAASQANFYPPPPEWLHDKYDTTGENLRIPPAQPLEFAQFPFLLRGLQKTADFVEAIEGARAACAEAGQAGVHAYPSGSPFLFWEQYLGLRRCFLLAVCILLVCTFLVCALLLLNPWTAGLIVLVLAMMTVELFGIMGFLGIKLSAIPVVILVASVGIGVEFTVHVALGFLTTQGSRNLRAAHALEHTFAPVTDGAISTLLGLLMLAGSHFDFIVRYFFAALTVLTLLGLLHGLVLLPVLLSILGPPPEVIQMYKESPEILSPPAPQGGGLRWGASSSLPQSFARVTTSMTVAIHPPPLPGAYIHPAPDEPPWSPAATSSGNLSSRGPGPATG


Molecular target: T1, human Ptch-2 (SEQ ID NO:2), …
Test: Scatchard analysis of 125I-Shh displacement curves, 293 cells expressing Ptch-2

| Kd [pM] | Binder |
| --- | --- |
| 400 | Ihh (SEQ ID NO:29) (ligand, also called Indian Hh) not shown |
| 600 | Dhh (SEQ ID NO:13) (ligand, also called Desert Hh; Desert hedgehog) not shown |
